The record followed here is patent US20230383007A1 (BIOSION, published 2023).

Usually EC50 stands for the concentration needed to bring the measured effect to its halfway point. The low end stands for a more potent agent, the high end for a less potent agent. As usually defined, the Kd is the constant that tells how readily two partners part at equilibrium. High values mean a looser complex, low ones a tighter complex. Usually koff stands for a measure of how fast the partners let go of each other. A lower koff goes with a long-lived complex. Broadly, the kon is the second-order rate constant of association. A lower kon goes with slower complex formation. The term IC50 denotes the concentration at which inhibition is half-maximal. Low readings indicate inhibition by little substance, high ones a need for much substance.

For assay [1], the target named is T1, human TROP2-his protein (human, UniProt P09758 27-274).
T1 construct: also called biotin labeled human TROP2-his protein
T1 sequence: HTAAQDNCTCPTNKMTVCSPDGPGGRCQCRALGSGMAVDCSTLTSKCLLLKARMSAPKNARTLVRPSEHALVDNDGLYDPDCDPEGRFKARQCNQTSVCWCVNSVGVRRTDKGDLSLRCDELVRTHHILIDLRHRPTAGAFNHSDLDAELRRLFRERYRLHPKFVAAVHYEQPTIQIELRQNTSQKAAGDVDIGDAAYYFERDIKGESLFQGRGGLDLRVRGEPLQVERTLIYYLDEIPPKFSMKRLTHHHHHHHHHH
Briefly: capture ELISA: antibody captured on anti-human IgG Fc coated plate, biotin labeled human TROP2-his detected with streptavidin-HRP; unit taken from the x axis (nM). As to the method: For the capture ELISA, 96-well plates were coated with 100 μl 2 μg/ml AffiniPure F(ab′)₂ Fragment GoatAnti-Human IgG, Fey fragment specific (Jackson Immuno Research, Cat #109-006-008) in PBS overnight at 4° C. Plates were washed once with wash buffer (PBS+0.05% v/v Tween-20, PBST) and then blocked with 200 μl/well blocking buffer (5% w/v non-fatty milk in PBST) for 2 hours at 37° C. Plates were washed 4 times and respectively incubated with 100 μl serially diluted anti-TROP2 antibodies of the disclosure, the benchmark or negative control hIgG (human immunoglobulin (pH4) for intravenous injection, Hualan Biological Engineering Inc.) (5-fold dilution in 2.5% w/v non-fatty milk in PBST, starting at 66.7 nM) for 40 minutes at 37° C., and then washed 4 times again. […] The reaction was stopped in 3-10 minutes at room temperature with 50 μl/well 1M H₂SO₄, and the absorbance of each well was read on a microplate reader using dual wavelength mode with 450 nm for TMB and 630 nm as the reference wavelength. […] Data was analyzed using Graphpad Prism software and EC₅₀ values were reported.
In general terms: An ELISA detects its analyte on a solid surface through an enzyme-linked reagent.

Assay [2] has as its target T1, human TROP2-his protein. Description: indirect ELISA on human TROP2; unit taken from the x axis (nM).
The target in assay [3] is T2, full length human TROP2 on 293F-TROP2 cells (clone ID #3A8) (human, UniProt P09758 27-323).
T2 sequence: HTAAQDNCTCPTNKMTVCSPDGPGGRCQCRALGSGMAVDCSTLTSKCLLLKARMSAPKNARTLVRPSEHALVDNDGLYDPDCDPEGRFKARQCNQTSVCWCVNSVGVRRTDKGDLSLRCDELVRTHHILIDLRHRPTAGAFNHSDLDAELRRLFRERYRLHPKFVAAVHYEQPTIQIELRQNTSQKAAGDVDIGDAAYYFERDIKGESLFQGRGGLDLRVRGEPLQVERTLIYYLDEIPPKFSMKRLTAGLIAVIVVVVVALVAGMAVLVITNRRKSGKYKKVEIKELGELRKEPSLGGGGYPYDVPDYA
Description: cell based binding FACS (MFI) on 293F-TROP2 cells expressing human TROP2; unit taken from the x axis (nM). As for the experimental part: Cells were washed twice with FACS buffer, and added with 100 μL/well R-Phycoerythrin AffiniPure Goat Anti-Human IgG, Fey fragment specific (1:1000 dilution in FACS buffer, Jackson Immunoresearch, Cat #109-115-098). Following an incubation of 40 minutes at 4° C. in dark, cells were washed twice and re-suspended in FACS buffer. Fluorescence was measured using a Becton Dickinson FACS Canto II-HTS equipment, and the MFI (mean fluorescence intensity) was plotted against antibody concentration. Data was analyzed using Graphpad Prism software and EC₅₀ values were reported.

The target in assay [4] is T1, human TROP2-his protein. Description: SPR Biacore; antibody captured on anti-human IgG chip, TROP2-his as analyte.
Assay [5] addresses T3, cynomolgus TROP2-his protein (cynomolgus, UniProt P09758 27-272 (human entry), limits assumed).
T3 construct: also called Cyno TROP2-his; Cynomolgus monkey TROP2-his protein
T3 chain: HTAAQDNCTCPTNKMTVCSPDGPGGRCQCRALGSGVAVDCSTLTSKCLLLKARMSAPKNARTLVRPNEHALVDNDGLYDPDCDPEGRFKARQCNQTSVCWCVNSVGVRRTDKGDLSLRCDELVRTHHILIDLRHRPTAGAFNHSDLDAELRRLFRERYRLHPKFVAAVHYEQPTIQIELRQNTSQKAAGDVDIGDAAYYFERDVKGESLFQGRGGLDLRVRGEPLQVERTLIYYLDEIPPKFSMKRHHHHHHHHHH
The description is as above.

For assay [6], the target named is T1, human TROP2-his protein. Briefly: competitive ELISA: antibody pre-mixed with biotin labeled human TROP2-his, added to plate coated with the benchmark (sacituzumab analog); unit taken from the x axis (nM).

B1: single domain antibody 01-9F (VHH)
VHH: QVQLVESGGGSVQAGGSLRLSCVVSGLPYERYCVAWFRQGPGKEREGVARILSDGTTSYSDSVKGRFTISKDNAKNTLYLQMNSLKSEDTATYYCAAEAFRPFTPSDGDCTTVLGIDYWGKGTPVTVSS
Turning to B1, the EC50 with human TROP2-his protein [1] is 0.164 nM; in the assay with human TROP2-his protein [2], 0.104 nM; in assay [3] it was 0.53 nM. Also, the Kd with human TROP2-his protein [4] came out at 0.291 nM; in assay [5], 0.285 nM. Further, the koff was 0.00017 s⁻¹ with human TROP2-his protein [4] and 0.00015 s⁻¹ in assay [5]. The values for the kon (with human TROP2-his protein [4]; in assay [5]) were 586000 M⁻¹ s⁻¹ and 525000 M⁻¹ s⁻¹, respectively. Further, the IC50 with human TROP2-his protein [6] was 0.247 nM.

B2: sacituzumab (benchmark, an analog of sacituzumab, in house made) (antibody, human IgG1, kappa, V domains shown)
VH: SVQLQQSGSELKKPGASVKVSCKASGYTFTNYGMNWVKQAPGQGLKWMGWINTYTGEPTYTDDFKGRFAFSLDTSVSTAYLQISSLKADDTAVYFCARGGFGSSYWYFDVWGQGSLVTVSS
VL: DIQLTQSPSSLSASVGDRVSITCKASQDVSIAVAWYQQKPGKAPKLLIYSASYRYTGVPDRFSGSGSGTDFTLTISSLQPEDFAVYYCQQHYITPLTFGAGTKVEIKR
notes: also called BM; BM1
As to B2, the figures for the EC50 (in the assay with human TROP2-his protein [1]; with human TROP2-his protein [2]; in assay [3]) were 0.269 nM, 0.162 nM and 0.706 nM, respectively. Besides, the Kd with human TROP2-his protein [4] came to 0.554 nM; in assay [5], 0.436 nM. For the same molecule, the koff with human TROP2-his protein [4] turned out to be 0.000286 s⁻¹; in assay [5], 0.000228 s⁻¹. Moreover, the kon with human TROP2-his protein [4] was 516000 M⁻¹ s⁻¹; in assay [5] it was 522000 M⁻¹ s⁻¹.
